Assay results published in publication PMC3797246 (Structure (London, England : 1993), 2013).

Tests used:
[1] = biological target: T1, SARAH domain of human RASSF5 (RASSF5^SARAH, residues 366-413) (human, UniProt Q8WWW0 366-413); assay: SEC
T1 chain (looked up): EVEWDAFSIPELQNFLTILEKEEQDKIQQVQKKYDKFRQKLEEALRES

AUC = biological target: the molecule itself; assay: AUC
SEC = biological target: the molecule itself; assay: SEC
co-IP = biological target: the molecule itself; assay: co-IP

B1: linker-deletion Mst2 (Mst2^ΔL, residues 9-313 and 428-491) (enzyme, human, UniProt Q13188 9-313, looked up)
chain: SKLKKLSEDSLTKQPEEVFDVLEKLGEGSYGSVFKAIHKESGQVVAIKQVPVESDLQEIIKEISIMQQCDSPYVVKYYGSYFKNTDLWIVMEYCGAGSVSDIIRLRNKTLIEDEIATILKSTLKGLEYLHFMRKIHRDIKAGNILLNTEGHAKLADFGVAGQLTDTMAKRNTVIGTPFWMAPEVIQEIGYNCVADIWSLGITSIEMAEGKPPYADIHPMRAIFMIPTNPPPTFRKPELWSDDFTDFVKKCLVKNPEQRATATQLLQHPFIKNAKPVSILRDLITEAMEIKAKRHEEQQRELEEEENWKVPQDGDFDFLKNLSLEELQMRLKALDPMMEREIEELRQRYTAKRQPILDAMDAKKRRQQNF
Does B1 bind [1]?
Result: binds

B2: catalytically inactive mutant of the human Mst2 kinase domain (Mst2^KD/D146N) (domain or fragment, UniProt Q13188 16-313, looked up)
chain: EDSLTKQPEEVFDVLEKLGEGSYGSVFKAIHKESGQVVAIKQVPVESDLQEIIKEISIMQQCDSPYVVKYYGSYFKNTDLWIVMEYCGAGSVSDIIRLRNKTLIEDEIATILKSTLKGLEYLHFMRKIHRNIKAGNILLNTEGHAKLADFGVAGQLTDTMAKRNTVIGTPFWMAPEVIQEIGYNCVADIWSLGITSIEMAEGKPPYADIHPMRAIFMIPTNPPPTFRKPELWSDDFTDFVKKCLVKNPEQRATATQLLQHPFIKNAKPVSILRDLITEAMEIKAKRHEEQQRELEEEE
For B2, which “stoichiometry N” value (AUC) is on record?
Its value is 2.

B3: full-length Mst2 (Mst2^FL, residues 9-491) (enzyme, human, UniProt Q13188 9-491, looked up)
chain: SKLKKLSEDSLTKQPEEVFDVLEKLGEGSYGSVFKAIHKESGQVVAIKQVPVESDLQEIIKEISIMQQCDSPYVVKYYGSYFKNTDLWIVMEYCGAGSVSDIIRLRNKTLIEDEIATILKSTLKGLEYLHFMRKIHRDIKAGNILLNTEGHAKLADFGVAGQLTDTMAKRNTVIGTPFWMAPEVIQEIGYNCVADIWSLGITSIEMAEGKPPYADIHPMRAIFMIPTNPPPTFRKPELWSDDFTDFVKKCLVKNPEQRATATQLLQHPFIKNAKPVSILRDLITEAMEIKAKRHEEQQRELEEEEENSDEDELDSHTMVKTSVESVGTMRATSTMSEGAQTMIEHNSTMLESDLGTMVINSEDEEEEDGTMKRNATSPQVQRPSFMDYFDKQDFKNKSHENCNQNMHEPFPMSKNVFPDNWKVPQDGDFDFLKNLSLEELQMRLKALDPMMEREIEELRQRYTAKRQPILDAMDAKKRRQQNF
modifications: phosphorylated at the activation loop (T180) as purified from bacteria
Which “stoichiometry N” value (SEC) does the source give for B3 here?
The value was 2.

B4: Mst2 D456A, full-length, in vitro translated (enzyme, human, UniProt Q13188 1-491, looked up)
chain: MEQPPAPKSKLKKLSEDSLTKQPEEVFDVLEKLGEGSYGSVFKAIHKESGQVVAIKQVPVESDLQEIIKEISIMQQCDSPYVVKYYGSYFKNTDLWIVMEYCGAGSVSDIIRLRNKTLIEDEIATILKSTLKGLEYLHFMRKIHRDIKAGNILLNTEGHAKLADFGVAGQLTDTMAKRNTVIGTPFWMAPEVIQEIGYNCVADIWSLGITSIEMAEGKPPYADIHPMRAIFMIPTNPPPTFRKPELWSDDFTDFVKKCLVKNPEQRATATQLLQHPFIKNAKPVSILRDLITEAMEIKAKRHEEQQRELEEEEENSDEDELDSHTMVKTSVESVGTMRATSTMSEGAQTMIEHNSTMLESDLGTMVINSEDEEEEDGTMKRNATSPQVQRPSFMDYFDKQDFKNKSHENCNQNMHEPFPMSKNVFPDNWKVPQDGDFDFLKNLSLEELQMRLKALAPMMEREIEELRQRYTAKRQPILDAMDAKKRRQQNF
modifications: 35S-methionine label
How did the “binding compared to wild-type Mst2” value (co-IP) turn out when B4 was run?
Its value is ≥ 30%.

B5: Mst2 L466A, full-length, in vitro translated (enzyme, human, UniProt Q13188 1-491, looked up)
chain: MEQPPAPKSKLKKLSEDSLTKQPEEVFDVLEKLGEGSYGSVFKAIHKESGQVVAIKQVPVESDLQEIIKEISIMQQCDSPYVVKYYGSYFKNTDLWIVMEYCGAGSVSDIIRLRNKTLIEDEIATILKSTLKGLEYLHFMRKIHRDIKAGNILLNTEGHAKLADFGVAGQLTDTMAKRNTVIGTPFWMAPEVIQEIGYNCVADIWSLGITSIEMAEGKPPYADIHPMRAIFMIPTNPPPTFRKPELWSDDFTDFVKKCLVKNPEQRATATQLLQHPFIKNAKPVSILRDLITEAMEIKAKRHEEQQRELEEEEENSDEDELDSHTMVKTSVESVGTMRATSTMSEGAQTMIEHNSTMLESDLGTMVINSEDEEEEDGTMKRNATSPQVQRPSFMDYFDKQDFKNKSHENCNQNMHEPFPMSKNVFPDNWKVPQDGDFDFLKNLSLEELQMRLKALDPMMEREIEEARQRYTAKRQPILDAMDAKKRRQQNF
modifications: 35S-methionine label
For B5, which “binding compared to wild-type Mst2” value (co-IP) is on record?
The value was ≥ 30%.

B6: Mst2 R474A, full-length, in vitro translated (enzyme, human, UniProt Q13188 1-491, looked up)
chain: MEQPPAPKSKLKKLSEDSLTKQPEEVFDVLEKLGEGSYGSVFKAIHKESGQVVAIKQVPVESDLQEIIKEISIMQQCDSPYVVKYYGSYFKNTDLWIVMEYCGAGSVSDIIRLRNKTLIEDEIATILKSTLKGLEYLHFMRKIHRDIKAGNILLNTEGHAKLADFGVAGQLTDTMAKRNTVIGTPFWMAPEVIQEIGYNCVADIWSLGITSIEMAEGKPPYADIHPMRAIFMIPTNPPPTFRKPELWSDDFTDFVKKCLVKNPEQRATATQLLQHPFIKNAKPVSILRDLITEAMEIKAKRHEEQQRELEEEEENSDEDELDSHTMVKTSVESVGTMRATSTMSEGAQTMIEHNSTMLESDLGTMVINSEDEEEEDGTMKRNATSPQVQRPSFMDYFDKQDFKNKSHENCNQNMHEPFPMSKNVFPDNWKVPQDGDFDFLKNLSLEELQMRLKALDPMMEREIEELRQRYTAKAQPILDAMDAKKRRQQNF
modifications: 35S-methionine label
How did the “binding compared to wild-type Mst2” value (co-IP) turn out when B6 was run?
Its value is ≥ 30%.

B7: Mst2 R467A, full-length, in vitro translated (enzyme, human, UniProt Q13188 1-491, looked up)
chain: MEQPPAPKSKLKKLSEDSLTKQPEEVFDVLEKLGEGSYGSVFKAIHKESGQVVAIKQVPVESDLQEIIKEISIMQQCDSPYVVKYYGSYFKNTDLWIVMEYCGAGSVSDIIRLRNKTLIEDEIATILKSTLKGLEYLHFMRKIHRDIKAGNILLNTEGHAKLADFGVAGQLTDTMAKRNTVIGTPFWMAPEVIQEIGYNCVADIWSLGITSIEMAEGKPPYADIHPMRAIFMIPTNPPPTFRKPELWSDDFTDFVKKCLVKNPEQRATATQLLQHPFIKNAKPVSILRDLITEAMEIKAKRHEEQQRELEEEEENSDEDELDSHTMVKTSVESVGTMRATSTMSEGAQTMIEHNSTMLESDLGTMVINSEDEEEEDGTMKRNATSPQVQRPSFMDYFDKQDFKNKSHENCNQNMHEPFPMSKNVFPDNWKVPQDGDFDFLKNLSLEELQMRLKALDPMMEREIEELAQRYTAKRQPILDAMDAKKRRQQNF
modifications: 35S-methionine label
With B7 as the binder, how does the “binding compared to wild-type Mst2” value (co-IP) read?
The value was ≥ 30%.

B8: Mst2 K473A, full-length, in vitro translated (enzyme, human, UniProt Q13188 1-491, looked up)
chain: MEQPPAPKSKLKKLSEDSLTKQPEEVFDVLEKLGEGSYGSVFKAIHKESGQVVAIKQVPVESDLQEIIKEISIMQQCDSPYVVKYYGSYFKNTDLWIVMEYCGAGSVSDIIRLRNKTLIEDEIATILKSTLKGLEYLHFMRKIHRDIKAGNILLNTEGHAKLADFGVAGQLTDTMAKRNTVIGTPFWMAPEVIQEIGYNCVADIWSLGITSIEMAEGKPPYADIHPMRAIFMIPTNPPPTFRKPELWSDDFTDFVKKCLVKNPEQRATATQLLQHPFIKNAKPVSILRDLITEAMEIKAKRHEEQQRELEEEEENSDEDELDSHTMVKTSVESVGTMRATSTMSEGAQTMIEHNSTMLESDLGTMVINSEDEEEEDGTMKRNATSPQVQRPSFMDYFDKQDFKNKSHENCNQNMHEPFPMSKNVFPDNWKVPQDGDFDFLKNLSLEELQMRLKALDPMMEREIEELRQRYTAARQPILDAMDAKKRRQQNF
modifications: 35S-methionine label
With B8 as the binder, how does the “binding compared to wild-type Mst2” value (co-IP) read?
Its value is ≥ 30%.

B9: Mst2 R469A, full-length, in vitro translated (enzyme, human, UniProt Q13188 1-491, looked up)
chain: MEQPPAPKSKLKKLSEDSLTKQPEEVFDVLEKLGEGSYGSVFKAIHKESGQVVAIKQVPVESDLQEIIKEISIMQQCDSPYVVKYYGSYFKNTDLWIVMEYCGAGSVSDIIRLRNKTLIEDEIATILKSTLKGLEYLHFMRKIHRDIKAGNILLNTEGHAKLADFGVAGQLTDTMAKRNTVIGTPFWMAPEVIQEIGYNCVADIWSLGITSIEMAEGKPPYADIHPMRAIFMIPTNPPPTFRKPELWSDDFTDFVKKCLVKNPEQRATATQLLQHPFIKNAKPVSILRDLITEAMEIKAKRHEEQQRELEEEEENSDEDELDSHTMVKTSVESVGTMRATSTMSEGAQTMIEHNSTMLESDLGTMVINSEDEEEEDGTMKRNATSPQVQRPSFMDYFDKQDFKNKSHENCNQNMHEPFPMSKNVFPDNWKVPQDGDFDFLKNLSLEELQMRLKALDPMMEREIEELRQAYTAKRQPILDAMDAKKRRQQNF
modifications: 35S-methionine label
How did the “binding compared to wild-type Mst2” value (co-IP) turn out when B9 was run?
The value was ≥ 30%.

B10: Mst2 L445A, full-length, in vitro translated (enzyme, human, UniProt Q13188 1-491, looked up)
chain: MEQPPAPKSKLKKLSEDSLTKQPEEVFDVLEKLGEGSYGSVFKAIHKESGQVVAIKQVPVESDLQEIIKEISIMQQCDSPYVVKYYGSYFKNTDLWIVMEYCGAGSVSDIIRLRNKTLIEDEIATILKSTLKGLEYLHFMRKIHRDIKAGNILLNTEGHAKLADFGVAGQLTDTMAKRNTVIGTPFWMAPEVIQEIGYNCVADIWSLGITSIEMAEGKPPYADIHPMRAIFMIPTNPPPTFRKPELWSDDFTDFVKKCLVKNPEQRATATQLLQHPFIKNAKPVSILRDLITEAMEIKAKRHEEQQRELEEEEENSDEDELDSHTMVKTSVESVGTMRATSTMSEGAQTMIEHNSTMLESDLGTMVINSEDEEEEDGTMKRNATSPQVQRPSFMDYFDKQDFKNKSHENCNQNMHEPFPMSKNVFPDNWKVPQDGDFDFLKNLSAEELQMRLKALDPMMEREIEELRQRYTAKRQPILDAMDAKKRRQQNF
modifications: 35S-methionine label
Which “binding compared to wild-type Mst2” value (co-IP) does the source give for B10 here?
Its value is ≥ 30%.
